T1: human CXCR5 (human, UniProt P32302 1-372)
T1 sequence: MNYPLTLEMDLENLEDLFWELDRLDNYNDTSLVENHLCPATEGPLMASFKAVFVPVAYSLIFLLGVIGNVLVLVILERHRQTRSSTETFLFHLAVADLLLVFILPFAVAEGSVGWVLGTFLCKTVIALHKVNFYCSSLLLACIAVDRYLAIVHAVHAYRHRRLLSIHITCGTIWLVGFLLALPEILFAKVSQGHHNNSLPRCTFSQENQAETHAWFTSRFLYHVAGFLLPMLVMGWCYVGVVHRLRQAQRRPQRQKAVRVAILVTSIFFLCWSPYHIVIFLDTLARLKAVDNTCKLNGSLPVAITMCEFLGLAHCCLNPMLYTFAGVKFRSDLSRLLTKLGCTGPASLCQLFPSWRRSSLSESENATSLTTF

T2: cynomolgus monkey CXCR5 (cynomolgus monkey, UniProt P32302 1-372 (human entry))
T2 construct: also called cynoCXCR5; NHP CXCR5
T2 chain: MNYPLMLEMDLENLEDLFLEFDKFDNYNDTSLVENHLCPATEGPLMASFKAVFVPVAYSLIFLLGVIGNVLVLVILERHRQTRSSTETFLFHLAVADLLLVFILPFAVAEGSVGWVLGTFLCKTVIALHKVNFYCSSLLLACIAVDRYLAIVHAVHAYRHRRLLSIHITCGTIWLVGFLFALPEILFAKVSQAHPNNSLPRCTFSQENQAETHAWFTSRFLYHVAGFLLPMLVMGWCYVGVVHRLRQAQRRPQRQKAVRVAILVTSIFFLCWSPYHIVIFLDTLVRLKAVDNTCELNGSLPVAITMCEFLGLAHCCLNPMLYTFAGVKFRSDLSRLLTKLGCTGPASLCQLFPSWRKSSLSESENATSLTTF

B1: mouse 11G2 (antibody, V domains shown)
VH: EVKLVESGGGLVQPGGSLRLSCATSGFTFTDFYMSWVRQPPGRALEWLGFIRNKANGYTTEYSASVKGRFTISRDNSQSILYLQMNTLRAGDSATYYCVRVYGSTLHYWGQGTILTVSS
VL: DVVVTQSPDSLAVSLGQRATISCRASESVEYHGTSLMHWYQQKPGQPPKLLIYAASNVESGVPARFSGSGSGTDFSLNIHPVEEGDIAMYFCQQSRKVPWTFGGGTKLEIK
notes: mouse hybridoma mAb; also called 11G2 (hybridoma)
B2: Afucosyl Chimeric 11G2 (antibody, human IgG1, kappa, V domains shown)
VH: EVKLVESGGGLVQPGGSLRLSCATSGFTFTDFYMSWVRQPPGRALEWLGFIRNKANGYTTEYSASVKGRFTISRDNSQSILYLQMNTLRAGDSATYYCVRVYGSTLHYWGQGTILTVSS
VL: DVVVTQSPDSLAVSLGQRATISCRASESVEYHGTSLMHWYQQKPGQPPKLLIYAASNVESGVPARFSGSGSGTDFSLNIHPVEEGDIAMYFCQQSRKVPWTFGGGTKLEIKR
modifications: afucosylated Fc glycan (Asn297)
notes: made in Potelligent CHOK1SV cells
B3: mouse 5H7 (antibody, V domains shown)
VH: EVKLVESGGGLVQPGDSLRLSCATSGFTFTDFYMSWVRQPPGRALEWLGFIRNKANGYTTEYSASVKGRFTISRDNSQSILYLQMNTLRAGDSATYYCVRVYGSTLHYWGQGTILTVSS
VL: DVVVTQSPDSLAVSLGQRATISCRASESVEYHGTSLMHWYQQKPGQPPKLLIYAASNVESGVPARFSGSGSGTDFSLNIHPVEEGDVSMFFCQQSRKVPWTFGGGTKLEIK
notes: mouse hybridoma mAb; also called 5H7 (hybridoma)
B4: mouse 41A10 (antibody, V domains shown)
VH: EVQLVESGGDLVKPGGSLKLSCAASGFTFRSYGMSWVRQTPDKRLEWVATISSGGTYTFYPDILKGRITISRDNAKNTLYLQMSNLKSEDTAMYYCARRGEDYRGALEHWGQGTSVTVSS
VL: QIVLTQSPAVMSASPGEKVTMTCSASSSVNYIHWYQQKSGTSPKRWIYETSRLASGVPVRFSGSGSGTSYSLTISTMEAEDAATYYCQQWSSNPLTFGAGTKLELK
notes: mouse hybridoma mAb; also called 41A10 (hybridoma)
B5: Afucosyl Chimeric 41A10 (antibody, human IgG1, kappa, V domains shown)
VH: EVQLVESGGDLVKPGGSLKLSCAASGFTFRSYGMSWVRQTPDKRLEWVATISSGGTYTFYPDILKGRITISRDNAKNTLYLQMSNLKSEDTAMYYCARRGEDYRGALEHWGQGTSVTVSS
VL: QIVLTQSPAVMSASPGEKVTMTCSASSSVNYIHWYQQKSGTSPKRWIYETSRLASGVPVRFSGSGSGTSYSLTISTMEAEDAATYYCQQWSSNPLTFGAGTKLELKR
modifications: afucosylated Fc glycan (Asn297)
B6: Humanized 41A10 142/147 (antibody, human IgG1, V domains shown)
VH: EVQLVESGGGLVQPGGSLRLSCAASGFTFRSYGMSWVRQAPGKGLEWVATISSGGTYTFYPDILKGRITISRDNAKNSLYLQMNSLRAEDTAVYYCARRGEDYRGALEHWGQGTLVTVSS
VL: DIQMTQSPSSLSASVGDRVTITCSASSSVNYIHWYQQKPGKAPKRLIYETSRLASGVPSRFSGSGSGTDYTLTISSLQPEDFATYYCQQWSSNPLTFGQGTKVEIK
notes: also called h41A10 VH (XC147)/VL (XC142)
B7: Humanized 41A10 142/148 (antibody, human IgG1, V domains shown)
VH: EVQLVESGGGLVQPGGSLRLSCAASGFTFRSYGMSWVRQAPGKGLEWVATISSGGTYTFYPDILKGRFTISRDNAKNSLYLQMNSLRAEDTAVYYCARRGEDYRGALEHWGQGTLVTVSS
VL: DIQMTQSPSSLSASVGDRVTITCSASSSVNYIHWYQQKPGKAPKRLIYETSRLASGVPSRFSGSGSGTDYTLTISSLQPEDFATYYCQQWSSNPLTFGQGTKVEIK
notes: also called h41A10 VH (XC148)/VL (XC142)
B8: Humanized 11G2 151/152 (antibody, human IgG1, V domains shown)
VH: EVQLVESGGGLVKPGGSLRLSCAASGFTFTDFYMSWVRQAPGKGLEWLGFIRNKANGYTTEYSAPVKGRFTISRDDSKNTLYLQMNSLKTEDTAVYYCVRVYGSTLHYWGQGTLVTVSS
VL: DIQMTQSPSSLSASVGDRVTITCRASESVEYHGTSLMHWYQQKPGKAPKLLIYAASNVESGVPSRFSGSGSGTDFTLTISSLQPEDFATYYCQQSRKVPWTFGQGTKVEIK
notes: also called h11G2 VH (XC152)/VL (XC151)
B9: Humanized 11G2 153/156 (antibody, human IgG1, V domains shown)
VH: EVQLVESGGGLVQPGGSLRLSCATSGFTFTDFYMSWVRQAPGKGLEWVGFIRNKANGYTTEYSASVKGRFTISRDNAKNSLYLQMNSLRAEDTAVYYCVRVYGSTLHYWGQGTLVTVSS
VL: DIQMTQSPSSLSASVGDRVTITCRASESVEYHGTSLMHWYQQKPGKAPKLLIYAASNVESGVPSRFSGSGSGTDFTLTISSLQPEDFATYFCQQSRKVPWTFGQGTKVEIK
notes: also called h11G2 VH (XC156)/VL (XC153)
B10: Humanized 11G2 154/157 (antibody, human IgG1, V domains shown)
VH: EVQLVESGGGLVQPGGSLRLSCATSGFTFTDFYMSWVRQAPGKGLEWVGFIRNKANGYTTEYSASVKGRFTISRDNAKSSLYLQMNSLRAEDTAVYYCVRVYGSTLHYWGQGTLVTVSS
VL: DIQMTQSPSSLSASVGDRVTITCRASESVEYHGTSLMHWYQQKPGKAPKLLIYAASNVESGVPSRFSGSGSGTDFTLTISSLQPEDFATYYCQQSRKVPWTFGQGTKVEIK
notes: also called h11G2 VH (XC157)/VL (XC154)
B11: Humanized 11G2 153/155 (antibody, human IgG1, V domains shown)
VH: EVQLVESGGGLVQPGGSLRLSCAASGFTFTDFYMSWVRQAPGKGLEWVGFIRNKANGYTTEYSASVKGRFTISRDNAKNSLYLQMNSLRAEDTAVYYCARVYGSTLHYWGQGTLVTVSS
VL: DIQMTQSPSSLSASVGDRVTITCRASESVEYHGTSLMHWYQQKPGKAPKLLIYAASNVESGVPSRFSGSGSGTDFTLTISSLQPEDFATYFCQQSRKVPWTFGQGTKVEIK
notes: also called h11G2 VH (XC155)/VL (XC153)

Key:
human CXCR5 [1] = biological target: T1, human CXCR5; assay: cell-based or functional assay
human CXCR5 [2] = biological target: T1, human CXCR5; assay: flow cytometry on Raji cells, gMFI titration
Experimental: The apparent affinity of antibody binding to Raji cells was calculated as the EC₅₀ of equilibrium binding titration curves in which the geometric mean fluorescence intensity (gMFI) of the antigen binding population was quantified by flow cytometry and the results are shown in Table 2.

human CXCR5 [3] = biological target: T1, human CXCR5; assay: cell-based or functional assay; remark: listed apart in the source
human CXCR5 [4] = biological target: T1, human CXCR5; assay: flow cytometry, human tonsil Tfh cells
Experimental: Following centrifugation, red blood cell lysis was performed on the pellet using an ammonium chloride lysis buffer. Platelets were removed using a low speed centrifugation (200×g) for 10 minutes in Phosphate-Buffered Saline (PBS)/2% FBS/2 mM Ethylenediaminetetraacetic acid (EDTA). CD4+ T cells were purified out of the TMC mixture using an EasySep™ Human CD4+ T Cell Enrichment Kit, according to the manufacturer's instructions ([…] Technologies, Vancouver, BC, Canada).
(§1) Following isolation, PBMCs were plated at a density of 1.0×10⁵ cells per well and CD4+ TMCs were plated at a density of 2.0×10⁵ cells per well in isolation buffer (PBS containing 1% FBS and 1 mM EDTA) in 96 well U-bottom plates. The plates were then centrifuged at 1500 rpm for 5 minutes at room temperature. PBMCs and CD4+ TMCs were resuspended in Fluorescence-activated cell sorting (FACS) buffer (PBS containing 1% FBS) containing human crystallized fragment Fc block (2 μL per well; Biolegend) and 4-fold serial dilutions of the antibodies (11-point dilution series, beginning at 5000 ng/mL for PBMCs and 312.5 ng/mL for CD4+ TMCs) and incubated on ice for 2 hours. PBMCs and CD4+ TMCs were then washed with FACS buffer 3 times and resuspended in 50-100 μL of FACs buffer containing fluorescent-conjugated antibodies for staining lymphocyte subsets and a fluorescent-conjugated secondary antibody against human Ig to detect CXCR5 monoclonal antibodies (mAbs). After incubation for 30 minutes at 4° C., PBMCs and CD4+ TMCs were washed with FACS buffer 2 times and resuspended in 125 μL of 0.5% paraformaldehyde (PFA) in PBS. Plates were stored at 4° C. until analysis by flow cytometry (BD LSRFortessa™ Cell Analyzer, BD Biosciences, Franklin Lakes, N.J.).
(§2) The cell binding titration curves were generated by plotting the gMFI of the antigen binding population against the log of CXCR5 antibody concentration. EC₅₀ values were determined using GraphPad Prism® (version 6.0, GraphPad Software, Inc, San Diego, Calif.) nonlinear-regression curve fits and a sigmoidal log of agonist dose-response model, according to the following equation

human CXCR5 [5] = biological target: T1, human CXCR5; assay: flow cytometry, human PBMC B cells
Experimental: (§3) The apparent affinity for cell surface CXCR5 of chimeric and humanized CXCR5 fucosylated and afucosylated antibodies was assessed. More specifically, to determine the apparent affinity of chimeric and humanized CXCR5 antibodies to CXCR5-expressing cells, cell binding experiments were performed on human and cynomolgus monkey peripheral blood mononuclear cells (PBMCs) and human tonsillar mononuclear cells (TMCs). The apparent affinity of CXCR5 mab binding to CXCR5+ cells (B cells, bona fide Tfh cells, and circulating Tfh-like cells) was calculated as the EC50 of equilibrium binding titration curves in which the geometric mean fluorescence intensity (gMFI) of the antigen binding population was quantified by flow cytometry.
as §1, §2

cynomolgus monkey CXCR5 [6] = biological target: T2, cynomolgus monkey CXCR5; assay: flow cytometry, cynomolgus PBMC B cells
Experimental: as §3, §1, §2

cynomolgus monkey CXCR5 [7] = biological target: T2, cynomolgus monkey CXCR5; assay: cell-based or functional assay

| Binder | Ca2+ flux IC50 (human CXCR5 [1]) [pM] | EC50 (human CXCR5 [2]) [pM] | ADCC Activity Average EC50, Human B Cells (human CXCR5 [3]) [pM] | ADCC Activity Average EC50, Human Tfh Cells (human CXCR5 [3]) [pM] | EC50 (human CXCR5 [4]) [pM] | EC50 (human CXCR5 [5]) [pM] | EC50 (cynomolgus monkey CXCR5 [6]) [pM] | ADCC Activity Average EC50, NHP B Cells (cynomolgus monkey CXCR5 [7]) [pM] |
| --- | --- | --- | --- | --- | --- | --- | --- | --- |
| B1 | 5930 | 968 | – | – | – | – | – | – |
| B2 | – | – | 4.39 | 0.07 | 45.6 | 8.09 | – | – |
| B3 | 5560 | 1010 | – | – | – | – | – | – |
| B4 | 14700 | 805 | – | – | – | – | – | – |
| B5 | – | – | 54.5 | – | – | – | – | – |
| B6 | – | – | 1240 | – | – | 153 | 2050 | – |
| B7 | – | – | 1110 | – | – | 152 | 1960 | – |
| B8 | – | – | 377 | – | 3.33 | 13.1 | 10.1 | 43.6 |
| B9 | – | – | 568 | – | 3.23 | 8.88 | 7.06 | 28.1 |
| B10 | – | – | 517 | – | 7.24 | 19.1 | 8.65 | 54 |
| B11 | – | – | 463 | – | 4.82 | 7.79 | 7.03 | 20.7 |
